# Measured values published in patent US11306137B2, “Antibody binding agents that bind Acinetobactor and uses thereof” (priority 2015, dated 2022).
# T1: outer membrane protein A (OmpA) of A. baumannii (A. baumannii, UniProt Q6RYW5 20-356)
# T1 construct: also called whole OmpA
# T1 sequence: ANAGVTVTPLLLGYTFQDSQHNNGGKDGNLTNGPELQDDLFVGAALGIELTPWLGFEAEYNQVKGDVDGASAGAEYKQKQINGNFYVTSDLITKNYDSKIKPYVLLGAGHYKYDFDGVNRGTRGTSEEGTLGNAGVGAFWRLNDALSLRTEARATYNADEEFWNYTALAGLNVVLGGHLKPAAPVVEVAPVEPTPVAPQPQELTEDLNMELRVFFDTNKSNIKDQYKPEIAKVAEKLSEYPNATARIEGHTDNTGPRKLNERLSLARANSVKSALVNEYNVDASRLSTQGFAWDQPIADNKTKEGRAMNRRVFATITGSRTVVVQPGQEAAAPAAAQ
# T2: DHFR-3Loop fusion protein (mouse (DHFR part)); A. baumannii (OmpA …)
# T2 construct: also called DHFR-3 Loop protein; recombinant DHFR-3Loop protein
# T2 chain: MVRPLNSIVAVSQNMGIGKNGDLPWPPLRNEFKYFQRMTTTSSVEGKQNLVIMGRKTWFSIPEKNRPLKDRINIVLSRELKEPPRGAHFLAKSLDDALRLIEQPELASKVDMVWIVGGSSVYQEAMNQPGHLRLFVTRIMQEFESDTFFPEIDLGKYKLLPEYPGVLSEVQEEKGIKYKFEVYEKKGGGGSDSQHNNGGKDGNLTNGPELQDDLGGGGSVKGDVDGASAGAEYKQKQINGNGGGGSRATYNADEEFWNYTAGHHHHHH
# B1: R2D2: mouse IgM monoclonal antibody from hybridoma R2D2 (ATCC PTA-122178); light chain SEQ ID NO:28, heavy chain SEQ ID NO:29 (antibody, listed as Mus musculus)
# heavy: QVQLKQSGPGLVQPSQSLSITCTVSGFSLTSYGVHWVRQSPGKGLEWLGVIWSGGSTDYNAAFISRLSISKDNSKSQVFFKMNSLQANDTAIYYCARRRRSTAMDYWGQGTSVTVSSESQSFPN
# light: DIGMTQSXSPQDMSVGPKVTMSSKCRKSLLNSRNQKKYLTSDQQKPGQYTKSLGDFASISESRVTDRFIGSGSGTDLPLGWGILPPLPLADYFCQQHYSTP
# modifications: not fully specified; (8)..(8) Xaa can be any naturally occurring amino acid
# B2: 9.1C8 monoclonal antibody (antibody, V domains shown)
# VH: EVQLQQSGPELVKPGASVKISCKASGYSFTGYTMNWVKQSHGKSLEWIGRINPYNGDSFYNQKFKGKATLTVDKSSNIAHMEFLSLTSEDSAVYYCGRSGDGPWFAYWGQGTLVTVSA
# VL: LPLSLPVSLGDQASISCRSSQSIVHNNGNTYLEWYLQKPGQSPKLLIYKVSNRFSGVPDRFSGSGSGTDFTLKISRVEAEDLGVYYCFQGSHVPLTFGAGTKLEIKGSRS
# notes: also called C8 mAb; C8 MAb
# B3: X1 monoclonal antibody (antibody, V domains shown)
# VH: EVQLQQSGPELVKPGASVKISCKASGYSFTGYFMNWVKQSHGKSLEWIGRINPYNGDTFYNQKFKGKATLTVDKSSSTAHMELRSLTSEDSAVYYCARLNYRGAYWGQGTLVTVSA
# VL: B2 VL
# notes: also called X1 mAb
# Key:
# [1] = system: A. baumannii HUMC1; experiment: Lethal bloodstream (i.v. tail-vein) infection model, survival; assay type: in vivo, mice; settings: i.v. infection; treated i.p. at 1 hr post-infection; C8 150 μg, colistin 0.0125 mg/kg; FIG. 7D
# [2] = system: A. baumannii HUMC1; experiment: Effects of antibody on colistin MIC; assay type: cell-based
# Experimental: The minimum inhibitory concentration (MIC) of colistin for A. baumannii HUMC1 was determined in congruence with standard CLSI methodologies. In brief, A. baumannii HUMC1 was passaged in Mueller Hinton II (MH-II) Broth for 3 hr at 37° C. with shaking then diluting to 5×10^5 CFUs/mL. Colistin was serially diluted across rows of a 96-well plate with 0.1, 1, or 10 μg/mL C8 MAb, which was incubated at 37° C. for 24 hr. The MIC value was read as the lowest concentration that prevented visible growth of bacteria.
# [3] = system: A. baumannii cell surface; experiment: Flow cytometry binding to A. baumannii cell surface; settings: HUMC1 strain
# Experimental: Hybridoma pre-clones were selected for subcloning based on bacterial cell surface reactivity by flow cytometry. Briefly, A. baumannii was passaged to log phase, stained with the bacterial dye SYTO BC (LifeTech #B7277), then stained with pre-clone supernatant from 96-well plates at 4° C., rinsed, and counter-stained with CF 647-conjugated goat anti-mouse IgG (Sigma-Aldrich, #SAB4600182). Control samples were stained with mouse IgG1 isotype control mAb (R&D Systems, #MAB002). Percent positivity was determined by flow cytometry.
# Hybridoma cell lines were propagated in 96-well flat-bottom plates in DMEM-20%, and supernatants were harvested from wells for initial flow cytometry screening to identify antibodies that bound to intact bacteria. In brief, A. baumannii isolates were passaged to log phase, stained with the bacterial dye SYTO BC (LifeTech #B7277), and incubated for 1 hr with undiluted supernatants collected from 96-well plates at 4° C. Cells were washed and counter-stained with a secondary antibody, CF647-conjugated goat anti-mouse IgG (Sigma-Aldrich, #SAB4600182). Control samples were stained with a mouse IgG1 isotype control MAb (R&D Systems, #MAB002) as a negative control, and mouse polyclonal HUMC1-immune serum as a positive control for bacterial binding. Hybridomas that tested positive for bacterial binding were subcloned by limiting dilution into 96-well plates to ensure clonality, expanded, and retested to confirm bacterial binding.
# [4] = system: A. baumannii HUMC1; experiment: Lethal bloodstream (i.v. tail-vein) infection model, survival; assay type: in vivo, mice; settings: 2×10^7 HUMC1 i.v.; treated once i.v., approximately 20 μg
# Experimental: To determine if C8 could treat, inhibit and/or prevent A. baumannii induced sepsis, mice were infected i.v. via the tail-vein with 2×10^7 hyper-virulent A. baumannii HUMC1 and were treated once i.v. with either protein-G purified C8 mAb (approximately 10 or 20 μg doses) or an isotype-control antibody in a saline buffer. […] In a second experiment, mice were similarly infected and the C8 MAb was administered once i.v. in saline buffer at a low (5 μg) and very low (0.5 μg) dose.
# Male C3HeB/Fe mice (Jackson Labs) between the ages of 7-10 wk were used for all experiments. All animal work was conducted following approval by the Institutional Animal Use and Care Committee at the University of Southern California, in compliance with the recommendations in the Guide for the Care and Use of Laboratory Animals of the National Institutes of Health.
# For the bloodstream infection model, mice were infected intravenously via the tail-vein with designated inocula of A. baumannii isolates. An oropharyngeal model of aspiration pneumonia that recapitulates hospital- or ventilator-associated pneumonia (VAP) relevant to ICU populations was used. In brief, mice were sedated with isoflurane, hung by their maxillary incisors, tongues held to prevent swallowing, and 50 μL of bacterial inocula was placed in the trachea to allow inoculation of the organisms into the lungs by reflexive aspiration.
# [5] = biological target: T1, outer membrane protein A (OmpA) of A. …; experiment: ELISA with whole OmpA as target (data not shown)
# [6] = biological target: T2, DHFR-3Loop fusion protein; experiment: ELISA with DHFR-3Loop as target (data not shown)
molecule,measurement,setting,value
colistin,"survival, delayed treatment (monotherapy)",[1],completely ineffective
same,MIC of colistin against HUMC1,[2]; colistin alone,2 µg/mL
same,MIC of colistin against HUMC1,[2]; in the presence of C8 at 0.1 μg/mL,2 µg/mL
same,MIC of colistin against HUMC1,[2]; in the presence of C8 at 1 μg/mL,2 µg/mL
same,MIC of colistin against HUMC1,[2]; in the presence of C8 at 10 μg/mL,2 µg/mL
B1,binding to the cell surface of A. baumannii by flow cytometry,[3],specifically bound
same,protection against infection,[4],protective against infection
B2,binding result,[5],no binding
same,binding result,[6],no binding
B3,binding result,[5],no binding
same,binding result,[6],no binding
